From article PMC10512533, “A strategy to enhance and modify fatty acid synthesis in Corynebacterium glutamicum and Escherichia coli: overexpression of acyl-CoA thioesterases” (Microbial Cell Factories, 2023)

What was measured:
Test in all cases: thioesterase assay, Lineweaver-Burk plot
[1] = target: T1, TesA (Corynebacterium glutamicum, UniProt Q8NMW3); format: biochemical; conditions: optimal substrate; assay conditions of the kinetics not stated (optimum 30 °C, pH 8.0)
T1 construct: gene Cgl2451; full length in pET-28a(+), His-tag (Ni-NTA), E. coli BL21(DE3); forward primer encodes MAANN start; TE1 family
T1 sequence (Q8NMW3 1-155): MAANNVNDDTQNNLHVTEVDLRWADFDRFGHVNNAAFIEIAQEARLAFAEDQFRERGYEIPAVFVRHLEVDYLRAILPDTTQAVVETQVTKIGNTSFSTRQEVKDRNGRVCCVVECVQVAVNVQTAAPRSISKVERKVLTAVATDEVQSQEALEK
From the text: thioesterase assay, Lineweaver-Burk plot on TesA | of TesA estimated through fitting to the Michaelis–Menten equation

[2] = substrate: CC(=O)SCCNC(=O)CCNC(=O)[C@H](O)C(C)(C)COP(=O)(O)OP(=O)(O)OC[C@H]1O[C@@H](n2cnc3c(N)ncnc32)[C@H](O)[C@@H]1OP(=O)(O)O; format: biochemical, Corynebacterium glutamicum; conditions: optimal substrate, assay conditions of the kinetics not stated (optimum 30 °C, pH 9.0)
[3] = substrate: CCCCCCCC(=O)SCCNC(=O)CCNC(=O)[C@H](O)C(C)(C)COP(=O)(O)OP(=O)(O)OC[C@H]1O[C@@H](n2cnc3c(N)ncnc32)[C@H](O)[C@@H]1OP(=O)(O)O; format: biochemical, Corynebacterium glutamicum; conditions: optimal substrate, assay conditions of the kinetics not stated (optimum 30 °C, pH 8.0), authors' other TesB properties (Fig. 5) come from their previous studies

`CCCCCCCCCCCC(=O)SCCNC(=O)CCNC(=O)[C@H](O)C(C)(C)COP(=O)(O)OP(=O)(O)OC[C@H]1O[C@@H](n2cnc3c(N)ncnc32)[C@H](O)[C@@H]1OP(=O)(O)O` [C12, lauroyl-CoA] was tested, and the Km [1] was 1380 µM.

B1: TE9 (Corynebacterium glutamicum ATCC 13032) (protein)
chain: MFLTLSGADMSALIKGSGPHHVVVLNGWFGHAAGWGAFADYLDLGNYTWHFWDYRGYGNRKDDAGEFTLEEISADIVAYIDSIEAEKVSILGHSMGGVFMQKVLADSATPIASLVGISAVAAAGTPFDEDSRKLFTSAGHNPDSRRAIIDFTSGSRQPAAWLDDLTDSTVQNSTPEAVEKYFFAWADCNFAADLGTQDLPVYILTGDLDPAVTKTAVESAFGPIYQNLTVEELHDVGHYAIFEHPLGLAARVLRFLDAV
notes: full length in pET-28a(+), His-tag (Ni-NTA), E. coli BL21(DE3); forward primer encodes MFLTL start
Work on B1 yielded a Km [2] of 1810 µM.

B2: TesB (Corynebacterium glutamicum ATCC 13032) (protein)
chain: MKTIEDILTLEEIDRDIYRGPVIESYLARTFGGQVAAQALVAATHTVDKAFTVHSLHGYFIAPGDPTAPAIYLVDRVRDGKSYVTRSVRGIQDGEVIFSMQASFHRGDEGIEHMDKMRKVPAPDEIKGTVERMPISSRRVLDEWAEWDIRVIPQDQLELSDFTATEQAVWIRCTADLPDNPTFHQCSLTYLSDMTLLHSALVPHPGEKMQMASLDHAVWFLRPFRVDEWLLYDQRSPSASSGRALTHGRLFNQQGDLVAIVNQEGMTRTLHEGAQSIPMRKD
notes: full length in pET-28a(+), His-tag (Ni-NTA), E. coli BL21(DE3); forward primer encodes MKTIE start; TE4 family
In the case of B2, the Km [3] is reported as 5450 µM.
